Test results from the supplement of paper PMC9112550, “Optimization of the antimicrobial peptide Bac7 by deep mutational scanning” (BMC Biology, 2022).
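Also: peptides expressed intracellularly from a pBAD plasmid library in pooled LB shake-flask culture, induced with 0.3% L-arabinose, DNA abundance read by NGS, three biological replicates, DESeq2 with apeglm shrinkage.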

What follows are sequences tested on Escherichia coli TOP10 (assay: shrunken log2 fold change of peptide-encoding DNA abundance (4.5 h post-induction vs induction); higher = less antimicrobial activity (less host growth inhibition)). Conditions: time post-induction: 4.5 h; library: site-saturation at positions 5, 18, 19, 20.
With RRIRTRPPRLPRPRPRPHMYPRP the “shrunken log2 fold change” value was -0.275.
With RRIRTRPPRLPRPRPRPHPCPRP the “shrunken log2 fold change” value was -0.339.
With RRIRTRPPRLPRPRPRPHPDPRP the “shrunken log2 fold change” value was -0.00834.
RRIRTRPPRLPRPRPRPHPNPRP was tested, and the “shrunken log2 fold change” value was 0.0697.
For RRIRTRPPRLPRPRPRPHQRPRP, the “shrunken log2 fold change” value was -0.0533.
For RRIRTRPPRLPRPRPRPHTDPRP, the “shrunken log2 fold change” value was -0.401.
For RRIRTRPPRLPRPRPRPHTGPRP, the “shrunken log2 fold change” value was -0.34.
RRIRTRPPRLPRPRPRPHVYPRP was tested, and the “shrunken log2 fold change” value was -0.496.
With RRIRTRPPRLPRPRPRPHWEPRP the “shrunken log2 fold change” value was -0.171.
In the case of RRIRTRPPRLPRPRPRPHWTPRP, the “shrunken log2 fold change” value is reported as -0.0902.
RRIRTRPPRLPRPRPRPHWYPRP was tested, and the “shrunken log2 fold change” value was -0.135.
With RRIRTRPPRLPRPRPRPICMPRP the “shrunken log2 fold change” value was -0.348.
RRIRTRPPRLPRPRPRPIDHPRP was tested, and the “shrunken log2 fold change” value was -0.263.
In the case of RRIRTRPPRLPRPRPRPIEAPRP, the “shrunken log2 fold change” value is reported as -0.199.
RRIRTRPPRLPRPRPRPIEDPRP was tested, and the “shrunken log2 fold change” value was 0.0177.
With RRIRTRPPRLPRPRPRPIEGPRP the “shrunken log2 fold change” value was -0.0197.
With RRIRTRPPRLPRPRPRPIFGPRP the “shrunken log2 fold change” value was -0.0261.
In the case of RRIRTRPPRLPRPRPRPIFNPRP, the “shrunken log2 fold change” value is reported as -0.608.
For RRIRTRPPRLPRPRPRPIFSPRP, the “shrunken log2 fold change” value was -0.393.
RRIRTRPPRLPRPRPRPIFVPRP was tested, and the “shrunken log2 fold change” value was 0.144.
RRIRTRPPRLPRPRPRPIHNPRP was tested, and the “shrunken log2 fold change” value was -0.714.
In the case of RRIRTRPPRLPRPRPRPIIKPRP, the “shrunken log2 fold change” value is reported as -0.67.
For RRIRTRPPRLPRPRPRPIKCPRP, the “shrunken log2 fold change” value was -0.234.
For RRIRTRPPRLPRPRPRPILSPRP, the “shrunken log2 fold change” value was -0.0676.
RRIRTRPPRLPRPRPRPIMEPRP was tested, and the “shrunken log2 fold change” value was -0.409.
RRIRTRPPRLPRPRPRPIMGPRP was tested, and the “shrunken log2 fold change” value was -0.0135.
In the case of RRIRTRPPRLPRPRPRPIMSPRP, the “shrunken log2 fold change” value is reported as -0.152.
RRIRTRPPRLPRPRPRPIPWPRP was tested, and the “shrunken log2 fold change” value was -0.0529.
With RRIRTRPPRLPRPRPRPIQIPRP the “shrunken log2 fold change” value was 0.0193.
In the case of RRIRTRPPRLPRPRPRPISCPRP, the “shrunken log2 fold change” value is reported as 0.0135.
For RRIRTRPPRLPRPRPRPISTPRP, the “shrunken log2 fold change” value was -0.504.
In the case of RRIRTRPPRLPRPRPRPITYPRP, the “shrunken log2 fold change” value is reported as -0.0511.
In the case of RRIRTRPPRLPRPRPRPIVMPRP, the “shrunken log2 fold change” value is reported as -0.114.
For RRIRTRPPRLPRPRPRPIWRPRP, the “shrunken log2 fold change” value was -0.111.
With RRIRTRPPRLPRPRPRPIWWPRP the “shrunken log2 fold change” value was 0.261.
With RRIRTRPPRLPRPRPRPIYSPRP the “shrunken log2 fold change” value was -0.571.
RRIRTRPPRLPRPRPRPKAWPRP was tested, and the “shrunken log2 fold change” value was 0.255.
For RRIRTRPPRLPRPRPRPKCEPRP, the “shrunken log2 fold change” value was 0.118.
RRIRTRPPRLPRPRPRPKCTPRP was tested, and the “shrunken log2 fold change” value was -0.0569.
With RRIRTRPPRLPRPRPRPKENPRP the “shrunken log2 fold change” value was 0.15.
In the case of RRIRTRPPRLPRPRPRPKEPPRP, the “shrunken log2 fold change” value is reported as -0.00172.
In the case of RRIRTRPPRLPRPRPRPKGSPRP, the “shrunken log2 fold change” value is reported as -0.0414.
In the case of RRIRTRPPRLPRPRPRPKHFPRP, the “shrunken log2 fold change” value is reported as -0.0888.
RRIRTRPPRLPRPRPRPKHHPRP was tested, and the “shrunken log2 fold change” value was -0.263.
For RRIRTRPPRLPRPRPRPKHLPRP, the “shrunken log2 fold change” value was -0.233.
RRIRTRPPRLPRPRPRPKHPPRP was tested, and the “shrunken log2 fold change” value was -0.317.
With RRIRTRPPRLPRPRPRPKIEPRP the “shrunken log2 fold change” value was -0.00653.
In the case of RRIRTRPPRLPRPRPRPKILPRP, the “shrunken log2 fold change” value is reported as -0.0614.
For RRIRTRPPRLPRPRPRPKIYPRP, the “shrunken log2 fold change” value was -0.191.
With RRIRTRPPRLPRPRPRPKLHPRP the “shrunken log2 fold change” value was -0.101.
RRIRTRPPRLPRPRPRPKLSPRP was tested, and the “shrunken log2 fold change” value was 0.197.
For RRIRTRPPRLPRPRPRPKMLPRP, the “shrunken log2 fold change” value was -0.204.
RRIRTRPPRLPRPRPRPKMMPRP was tested, and the “shrunken log2 fold change” value was 0.332.
RRIRTRPPRLPRPRPRPKMQPRP was tested, and the “shrunken log2 fold change” value was 0.384.
For RRIRTRPPRLPRPRPRPKQEPRP, the “shrunken log2 fold change” value was -0.0429.
In the case of RRIRTRPPRLPRPRPRPKRPPRP, the “shrunken log2 fold change” value is reported as -0.165.
For RRIRTRPPRLPRPRPRPKRTPRP, the “shrunken log2 fold change” value was -0.132.
In the case of RRIRTRPPRLPRPRPRPKTDPRP, the “shrunken log2 fold change” value is reported as -0.158.
RRIRTRPPRLPRPRPRPKVMPRP was tested, and the “shrunken log2 fold change” value was -0.243.
For RRIRTRPPRLPRPRPRPLEPPRP, the “shrunken log2 fold change” value was 0.021.
With RRIRTRPPRLPRPRPRPLFKPRP the “shrunken log2 fold change” value was 1.5.
For RRIRTRPPRLPRPRPRPLHEPRP, the “shrunken log2 fold change” value was -0.191.
For RRIRTRPPRLPRPRPRPLHMPRP, the “shrunken log2 fold change” value was -0.369.
RRIRTRPPRLPRPRPRPLHVPRP was tested, and the “shrunken log2 fold change” value was -0.175.
For RRIRTRPPRLPRPRPRPLIEPRP, the “shrunken log2 fold change” value was -0.325.
In the case of RRIRTRPPRLPRPRPRPLKHPRP, the “shrunken log2 fold change” value is reported as -0.315.
With RRIRTRPPRLPRPRPRPLKWPRP the “shrunken log2 fold change” value was -0.205.
RRIRTRPPRLPRPRPRPLNYPRP was tested, and the “shrunken log2 fold change” value was -0.415.
For RRIRTRPPRLPRPRPRPLQDPRP, the “shrunken log2 fold change” value was 0.00698.
For RRIRTRPPRLPRPRPRPLQLPRP, the “shrunken log2 fold change” value was -0.167.
With RRIRTRPPRLPRPRPRPLQRPRP the “shrunken log2 fold change” value was -0.063.
In the case of RRIRTRPPRLPRPRPRPLSCPRP, the “shrunken log2 fold change” value is reported as -0.000228.
RRIRTRPPRLPRPRPRPLTCPRP was tested, and the “shrunken log2 fold change” value was -0.809.
RRIRTRPPRLPRPRPRPLTHPRP was tested, and the “shrunken log2 fold change” value was -0.0616.
In the case of RRIRTRPPRLPRPRPRPLTVPRP, the “shrunken log2 fold change” value is reported as -0.267.
In the case of RRIRTRPPRLPRPRPRPLVAPRP, the “shrunken log2 fold change” value is reported as 0.106.
For RRIRTRPPRLPRPRPRPLVDPRP, the “shrunken log2 fold change” value was -0.143.
For RRIRTRPPRLPRPRPRPLYLPRP, the “shrunken log2 fold change” value was -0.558.
With RRIRTRPPRLPRPRPRPMAPPRP the “shrunken log2 fold change” value was 0.294.
For RRIRTRPPRLPRPRPRPMAVPRP, the “shrunken log2 fold change” value was -0.296.
RRIRTRPPRLPRPRPRPMAYPRP was tested, and the “shrunken log2 fold change” value was 0.0358.
RRIRTRPPRLPRPRPRPMDMPRP was tested, and the “shrunken log2 fold change” value was 0.0382.
RRIRTRPPRLPRPRPRPMDYPRP was tested, and the “shrunken log2 fold change” value was -0.00965.
RRIRTRPPRLPRPRPRPMEDPRP was tested, and the “shrunken log2 fold change” value was -0.00968.
RRIRTRPPRLPRPRPRPMEKPRP was tested, and the “shrunken log2 fold change” value was -0.00136.
For RRIRTRPPRLPRPRPRPMHYPRP, the “shrunken log2 fold change” value was -1.41.
In the case of RRIRTRPPRLPRPRPRPMKDPRP, the “shrunken log2 fold change” value is reported as -0.303.
For RRIRTRPPRLPRPRPRPMKKPRP, the “shrunken log2 fold change” value was -0.115.
With RRIRTRPPRLPRPRPRPMLMPRP the “shrunken log2 fold change” value was -0.248.
In the case of RRIRTRPPRLPRPRPRPMMGPRP, the “shrunken log2 fold change” value is reported as -0.1.
In the case of RRIRTRPPRLPRPRPRPMMHPRP, the “shrunken log2 fold change” value is reported as -0.302.
With RRIRTRPPRLPRPRPRPMMYPRP the “shrunken log2 fold change” value was -0.00147.
In the case of RRIRTRPPRLPRPRPRPMNPPRP, the “shrunken log2 fold change” value is reported as -0.141.
For RRIRTRPPRLPRPRPRPMPPPRP, the “shrunken log2 fold change” value was 0.0692.
For RRIRTRPPRLPRPRPRPMQQPRP, the “shrunken log2 fold change” value was 0.065.
For RRIRTRPPRLPRPRPRPMQYPRP, the “shrunken log2 fold change” value was -0.0442.
For RRIRTRPPRLPRPRPRPMRRPRP, the “shrunken log2 fold change” value was 0.00555.
RRIRTRPPRLPRPRPRPMRTPRP was tested, and the “shrunken log2 fold change” value was 0.276.
With RRIRTRPPRLPRPRPRPMRWPRP the “shrunken log2 fold change” value was 0.313.
RRIRTRPPRLPRPRPRPMSGPRP was tested, and the “shrunken log2 fold change” value was -0.137.
For RRIRTRPPRLPRPRPRPMSSPRP, the “shrunken log2 fold change” value was -0.00458.
In the case of RRIRTRPPRLPRPRPRPMTMPRP, the “shrunken log2 fold change” value is reported as -0.223.
With RRIRTRPPRLPRPRPRPMVWPRP the “shrunken log2 fold change” value was 0.57.
RRIRTRPPRLPRPRPRPMYYPRP was tested, and the “shrunken log2 fold change” value was 0.0219.
With RRIRTRPPRLPRPRPRPNDQPRP the “shrunken log2 fold change” value was -0.212.
RRIRTRPPRLPRPRPRPNDVPRP was tested, and the “shrunken log2 fold change” value was -0.0532.
RRIRTRPPRLPRPRPRPNDYPRP was tested, and the “shrunken log2 fold change” value was -0.523.
In the case of RRIRTRPPRLPRPRPRPNERPRP, the “shrunken log2 fold change” value is reported as -0.0561.
RRIRTRPPRLPRPRPRPNFVPRP was tested, and the “shrunken log2 fold change” value was 0.0615.
